Assay results as given in patent US20200277374A1 (Alector, published 2020).
Each block holds one binder with its values, some of them ahead of it.

Columns and labels:
[1] = target: T1, human Siglec-7 expressed on human cells (primary monocytes, dendritic cells, macrophages, NK cells, … (human, UniProt Q9Y286 19-467)); test: cell-based or functional assay
[2] = target: T1, human Siglec-7 expressed on human cells …; test: cell-based or functional assay; remark: listed apart in the source
[3] = target: T1, human Siglec-7 expressed on human cells …; test: FACS, human primary monocytes, 10 ug/ml mAb
[4] = target: T1, human Siglec-7 expressed on human cells …; test: FACS, human primary macrophages, 10 ug/ml mAb
[5] = target: T1, human Siglec-7 expressed on human cells …; test: FACS, human primary dendritic cells, 10 ug/ml mAb
[6] = target: T2, Histidine-tagged human Siglec-7 (NovoProtein) (human, UniProt Q9Y286 19-357, limits assumed); test: SPR (BiaCore T200, 25 C), antibody captured on anti-mouse IgG, Siglec-7-His 5 nM, single-concentration kinetics
T2 construct: Bought protein; also called purified Siglec-7-his tagged protein; not shown: histidine tag
T2 sequence (Q9Y286 19-357 limits assumed): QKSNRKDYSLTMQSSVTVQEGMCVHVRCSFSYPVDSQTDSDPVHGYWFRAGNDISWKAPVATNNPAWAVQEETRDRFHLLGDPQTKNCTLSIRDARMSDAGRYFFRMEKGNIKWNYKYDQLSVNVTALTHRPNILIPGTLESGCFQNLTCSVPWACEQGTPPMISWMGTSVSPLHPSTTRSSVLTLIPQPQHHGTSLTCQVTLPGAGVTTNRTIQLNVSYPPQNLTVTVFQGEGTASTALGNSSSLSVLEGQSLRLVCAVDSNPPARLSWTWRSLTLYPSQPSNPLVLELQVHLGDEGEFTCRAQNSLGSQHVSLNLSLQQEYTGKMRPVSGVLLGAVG
Protocol: (§1) SPR data was collected at a rate of 10 Hz at 25′ C on a BiaCore T200 instrument. Data analysis was performed using BiaCore T200 Evaluation Software, version 2.0. HBS-EP+ (100 mM HEPES, 1.5 M NaCl, 30 mM EDTA, 0.5% v/v Surfactant P20, pH 7.4) was used as running buffer and for preparing reagents.
(§2) Mouse-derived antibodies (25 nM) against Siglec-7 were captured (60 s contact time, 30 μL/min flow rate, 0 s stabilization time) on a CM5 sensor chip (GE Healthcare) immobilized with anti-mouse IgG. Histidine-tagged human Siglec-7 (NovoProtein) was then flowed over the captured anti-Siglec-7 surface (120 s contact time, 30 μL/min flow rate, 300 s dissociation time). Concentration of antigen ranged from 5 nM to 100 nM, depending on information obtained from an initial screen. Duplicate single-concentration trials were performed and bracketed by a blank (0 nM antigen) sample. The chip surface was regenerated in between cycles using 10 mM glycine-HCl, pH1.7 (60 s contact time, 30 μL/min flow rate, 60 s stabilization time). The resulting SPR signal was obtained as the difference in response from measurements performed on a blank flow cell.
(§3) Affinity constants (KD) were calculated from the ratio kd/kₐ. For one antibody (clone 1E8), we validated the single-concentration analysis with a multiple-concentration approach (five concentrations of antigen used, plus one blank).

[7] = target: T3, Siglec-7-Fc (plate immobilized) (human, UniProt Q9Y286 19-357, limits assumed); test: RBC solid adhesion assay, plate-coated Siglec-7-Fc, antibody 0.5 or 1.0 ug/ml; % of RBC binding without antibody
T3 construct: also called Siglec-7-Fc protein; immobilized Siglec-7; not shown: Fc part
T3 sequence (Q9Y286 19-357 limits assumed): as above
Method in brief: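 Plates coated overnight at RT with 5 μg/ml Siglec-7-Fc and blocked in PBS with BSA and 1 mM CaCl₂. Antibody (0.5 or 1.0 μg/ml) bound 1 h at RT, then RBCs (3.0×10⁶ cells/ml) added for 1 h at RT. Bound RBCs lysed and detected by peroxidase at 450 nm, expressed as % of binding without antibody.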

[8] = target: T2, Histidine-tagged human Siglec-7 …; test: SPR (Biacore T200), antibody captured on anti-mouse IgG, 5 nM Siglec-7-his flowed over, single-concentration 1:1 fit, 25 C
Protocol: as §1, §2, §3

[9] = target: T2, Histidine-tagged human Siglec-7 …; test: SPR (BiaCore T200, 25 C), antibody captured on anti-mouse IgG, Siglec-7-His 10 nM, single-concentration kinetics
Protocol: as §1, §2, §3

[10] = target: T4, R124A (human, UniProt Q9Y286); test: flow cytometry on HEK-293T cells expressing the mutant, mock signal subtracted
T4 construct: clone of the siglec-7 mutation library; also called Siglec-7 R124A
T4 sequence (Q9Y286 19-467 R124A limits assumed): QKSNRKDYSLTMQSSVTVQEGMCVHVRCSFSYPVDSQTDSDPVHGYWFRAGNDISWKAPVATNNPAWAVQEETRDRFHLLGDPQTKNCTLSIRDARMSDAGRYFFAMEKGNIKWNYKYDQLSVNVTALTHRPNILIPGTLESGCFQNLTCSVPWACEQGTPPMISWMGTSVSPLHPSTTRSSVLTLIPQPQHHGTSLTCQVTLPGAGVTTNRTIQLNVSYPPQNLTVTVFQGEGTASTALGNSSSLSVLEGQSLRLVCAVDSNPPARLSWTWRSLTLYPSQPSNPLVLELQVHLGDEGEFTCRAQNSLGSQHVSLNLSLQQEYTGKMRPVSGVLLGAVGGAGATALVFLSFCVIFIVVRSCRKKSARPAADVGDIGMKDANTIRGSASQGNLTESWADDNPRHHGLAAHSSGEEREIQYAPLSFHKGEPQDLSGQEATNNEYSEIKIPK
Protocol: (§4) Shotgun mutagenesis epitope mapping of anti-siglec-7 antibodies was performed using an alanine-scanning library for the siglec-7 protein. […] Each of residues 19 to 353 was mutated, representing the siglec-7 extracellular domain, most to alanine, while alanine codons were mutated to serine. In total, 335 siglec-7 mutant expression constructs were generated, sequences confirmed, and arrayed into a 384-well plate, one mutant per well.
Cells were then incubated with MAbs diluted in 10% o normal goat serum (NGS) (Sigma-Aldrich, St. Louis, Mo.). Prior to library screening, primary MAb concentrations were determined using an independent immunofluorescence titration curve against cells expressing wild-type siglec-7 to ensure that signals were within the linear range of detection. MAbs were detected using 3.75 μg/ml AlexaFluor488-conjugated secondary antibody (Jackson immunoResearch Laboratories, Westgrove, Pa.) in 10% NGS. […] Mean cellular fluorescence was detected using the Intellicyt high throughput flow cytometer (HTFC, Intellicyt, Albuquerque, N. Mex.). MAb reactivities against each mutant clone were calculated relative to wild-type siglec-7 protein reactivity by subtracting the signal from mock-transfected controls, and normalizing to the signal from wild-type siglec-7-transfected controls.

[11] = target: T5, Y50A (human, UniProt Q9Y286); test: flow cytometry on HEK-293T cells expressing the mutant; mean % of wild-type signal (range of duplicates)
T5 construct: clone of the siglec-7 mutation library; also called Siglec-7 Y50A
T5 sequence (Q9Y286 19-467 Y50A limits assumed): as the sequence (Q9Y286 19-467 R124A limits assumed) above, with Y32A, A106R counted along it
Protocol: as §4
(§5) Cells were then incubated with MAbs diluted in 10% o normal goat serum (NGS) (Sigma-Aldrich, St. Louis, Mo.). Prior to library screening, primary MAb concentrations were determined using an independent immunofluorescence titration curve against cells expressing wild-type siglec-7 to ensure that signals were within the linear range of detection. MAbs were detected using 3.75 μg/ml AlexaFluor488-conjugated secondary antibody (Jackson immunoResearch Laboratories, Westgrove, Pa.) in 10% NGS. Cells were washed twice with PBS−/− and resuspended in Cellstripper (Cellgro, Manassas, Va.) with 0.1% BSA (Sigma-Aldrich, St. Louis, Mo.). Mean cellular fluorescence was detected using the Intellicyt high throughput flow cytometer (HTFC, Intellicyt, Albuquerque, N. Mex.). MAb reactivities against each mutant clone were calculated relative to wild-type siglec-7 protein reactivity by subtracting the signal from mock-transfected controls, and normalizing to the signal from wild-type siglec-7-transfected controls.

[12] = target: T6, I72A (human, UniProt Q9Y286); test: as above
T6 construct: clone of the siglec-7 mutation library; also called Siglec-7 I72A
T6 sequence (Q9Y286 19-467 I72A limits assumed): as the sequence (Q9Y286 19-467 R124A limits assumed) above, with I54A, A106R counted along it
Protocol: as §4, §5

[13] = target: T7, W74A (human, UniProt Q9Y286); test: as above
T7 construct: clone of the siglec-7 mutation library; also called Siglec-7 W74A
T7 sequence (Q9Y286 19-467 W74A limits assumed): as the sequence (Q9Y286 19-467 R124A limits assumed) above, with W56A, A106R counted along it
Protocol: as §4, §5

[14] = target: T8, N81A (human, UniProt Q9Y286); test: as above
T8 construct: clone of the siglec-7 mutation library; also called Siglec-7 N81A
T8 sequence (Q9Y286 19-467 N81A limits assumed): as the sequence (Q9Y286 19-467 R124A limits assumed) above, with N63A, A106R counted along it
Protocol: as §4, §5

[15] = target: T9, K104A (human, UniProt Q9Y286); test: as above
T9 construct: clone of the siglec-7 mutation library; also called Siglec-7 K104A
T9 sequence (Q9Y286 19-467 K104A limits assumed): as the sequence (Q9Y286 19-467 R124A limits assumed) above, with K86A, A106R counted along it
Protocol: as §4, §5

[16] = target: T10, T107A (human, UniProt Q9Y286); test: as above
T10 construct: clone of the siglec-7 mutation library; also called Siglec-7 T107A
T10 sequence (Q9Y286 19-467 T107A limits assumed): as the sequence (Q9Y286 19-467 R124A limits assumed) above, with T89A, A106R counted along it
Protocol: as §4, §5

[17] = target: T4, R124A; test: as above
Protocol: as §4, §5

[18] = target: T11, M185A (human, UniProt Q9Y286); test: as above
T11 construct: clone of the siglec-7 mutation library; also called Siglec-7 M185A
T11 sequence (Q9Y286 19-467 M185A limits assumed): as the sequence (Q9Y286 19-467 R124A limits assumed) above, with A106R, M167A counted along it
Protocol: as §4, §5

[19] = target: T12, M30A (human, UniProt Q9Y286); test: as above
T12 construct: clone of the siglec-7 mutation library; also called Siglec-7 M30A
T12 sequence (Q9Y286 19-467 M30A limits assumed): as the sequence (Q9Y286 19-467 R124A limits assumed) above, with M12A, A106R counted along it
Protocol: as §4, §5

[20] = target: T13, Q31A (human, UniProt Q9Y286); test: as above
T13 construct: clone of the siglec-7 mutation library; also called Siglec-7 Q31A
T13 sequence (Q9Y286 19-467 Q31A limits assumed): as the sequence (Q9Y286 19-467 R124A limits assumed) above, with Q13A, A106R counted along it
Protocol: as §4, §5

[21] = target: T14, V44A (human, UniProt Q9Y286); test: as above
T14 construct: clone of the siglec-7 mutation library; also called Siglec-7 V44A
T14 sequence (Q9Y286 19-467 V44A limits assumed): as the sequence (Q9Y286 19-467 R124A limits assumed) above, with V26A, A106R counted along it
Protocol: as §4, §5

[22] = target: T15, R45A (human, UniProt Q9Y286); test: as above
T15 construct: clone of the siglec-7 mutation library; also called Siglec-7 R45A
T15 sequence (Q9Y286 19-467 R45A limits assumed): as the sequence (Q9Y286 19-467 R124A limits assumed) above, with R27A, A106R counted along it
Protocol: as §4, §5

[23] = target: T16, S47A (human, UniProt Q9Y286); test: as above
T16 construct: clone of the siglec-7 mutation library; also called Siglec-7 S47A
T16 sequence (Q9Y286 19-467 S47A limits assumed): as the sequence (Q9Y286 19-467 R124A limits assumed) above, with S29A, A106R counted along it
Protocol: as §4, §5

[24] = target: T17, F48A (human, UniProt Q9Y286); test: as above
T17 construct: clone of the siglec-7 mutation library; also called Siglec-7 F48A
T17 sequence (Q9Y286 19-467 F48A limits assumed): as the sequence (Q9Y286 19-467 R124A limits assumed) above, with F30A, A106R counted along it
Protocol: as §4, §5

[25] = target: T2, Histidine-tagged human Siglec-7 …; test: SPR (BiaCore T200, 25 C), antibody captured on anti-mouse IgG, Siglec-7-His 50 nM, single-concentration kinetics
Protocol: as §1, §2, §3

T1 sequence (Q9Y286 19-467): as the sequence (Q9Y286 19-467 R124A limits assumed) above, with A106R counted along it

Percent Siglec-7 Surface Expression, DCs [1]: 23% | Percent Siglec-7 Surface Expression, Monocytes [1]: 36.7% | Percent Siglec-7 Surface Expression, U937 cells [1]: 114% | Percent Siglec-7 Surface Expression, Macrophages [2]: 9.1% | Percent Siglec-7 Surface Expression, Microglia [2]: 41.3% | Percent Siglec-7 Surface Expression, NK cells [2]: 144% | % Positive [3]: 99.3% | MFI [3]: 428 | % Positive [4]: 99.5% | MFI [4]: 5450 | % Positive [5]: 99.7% | MFI [5]: 2940 | Kd [6]: 0.017 nM | Percent RBC Binding to Siglec-7 [7]: 16.4% | Kd [8]: 0.017 nM
B1: anti-Siglec-7 antibody 1E8 (antibody, V domains shown)
VH: QVQLQQSGAELVRPGASVKLSCSASGFNIKGSLLHWIKQRPLQGLEWIGWIDPEDGETRFDPKFQDKAFLTADTSSTTAYLQLSSLTSEDTAIYYCARTEYSNPAWFAYWGQGTLVTVSA
VL: DIQMTQFPATLSVTPGDRVSLSCRASQSISDYLHWYQHKSHESPRLLIKYASQSISGIPSRFSGSGSGWDFTLSINSVEPEDVGIYYCQKGLNFPLTFGGGTKLEMK

Percent Siglec-7 Surface Expression, DCs [1]: 10.5% | Percent Siglec-7 Surface Expression, Monocytes [1]: 30.9% | Percent Siglec-7 Surface Expression, U937 cells [1]: 83.8% | Percent Siglec-7 Surface Expression, Macrophages [2]: 9.2% | Percent Siglec-7 Surface Expression, NK cells [2]: 74.7% | % Positive [3]: 99.1% | MFI [3]: 523 | % Positive [4]: 99.7% | MFI [4]: 3280 | % Positive [5]: 99.5% | MFI [5]: 897 | Kd [9]: 0.6 nM | Percent RBC Binding to Siglec-7 [7]: 111%
B2: anti-Siglec-7 antibody 10G8 (antibody, V domains shown)
VH: EVKLVEFGGALVKPGGSLKLSCAALGFTFSTYAMFRVRQTPEKREEGVASISSGGRYTYYPDSAKDRHPIFRDNARNTLYLQMSSLRSKDTAMYYCVRHSYGSSYWYLDVWGAGTTVTVSS
VL: DIQMTQFPATLSGTPGDRVZLSRRASQSIREYLHWYQQKSHESPRLZIKFASQSICGIPSRFSGSGSGSDFTLSINTVEPEDVGVYYCQKAHNFPYTFGGGTKLEIK
notes: Variable domains assembled from FR and CDR entries

binding result [10]: no binding | Binding Reactivity (% WT) [11]: 139 % WT | Binding Reactivity (% WT) [12]: 26.5 % WT | Binding Reactivity (% WT) [13]: 25.7 % WT | Binding Reactivity (% WT) [14]: 22 % WT | Binding Reactivity (% WT) [15]: 115 % WT | Binding Reactivity (% WT) [16]: 124 % WT | Binding Reactivity (% WT) [17]: 1 % WT | Binding Reactivity (% WT) [18]: 91.6 % WT | Binding Reactivity (% WT) [19]: 123 % WT | Binding Reactivity (% WT) [20]: 112 % WT | Binding Reactivity (% WT) [21]: 115 % WT | Binding Reactivity (% WT) [22]: 129 % WT | Binding Reactivity (% WT) [23]: 103 % WT | Binding Reactivity (% WT) [24]: 146 % WT
B3: 4E3 Fab (Fab, V domains shown)
VH: EVQLVESGGALVKPGGSLKISCAVSGFIFSNYDMSWVRQNPEKRLEWVATISSGGGYTYYPDSVKGRFTISRDNAKNALYLQMSSLRSEDTALYYCTRHGYGNYDWYFDVWGAGATVTVSS
VL: QIVLTQSPAILSASPGEKVTMTCSANSSFTYMYWYQQKPGSSPRLLIFDTSNLASGVPIRFSGSGSGTSYSLTISRMEAEDTATYYCQQWSSSPLTFGAGTKLELK

Percent Siglec-7 Surface Expression, DCs [1]: 98.1% | Percent Siglec-7 Surface Expression, Monocytes [1]: 29.3% | Percent Siglec-7 Surface Expression, U937 cells [1]: 84.6% | Percent Siglec-7 Surface Expression, Macrophages [2]: 14.1% | Percent Siglec-7 Surface Expression, Microglia [2]: 23% | Percent Siglec-7 Surface Expression, NK cells [2]: 126% | % Positive [3]: 99.3% | MFI [3]: 512 | % Positive [4]: 99.5% | MFI [4]: 15500 | % Positive [5]: 99.7% | MFI [5]: 5750 | Kd [25]: 0.4 nM | Percent RBC Binding to Siglec-7 [7]: 11.6%
B4: anti-Siglec-7 antibody 2G4 (antibody, V domains shown)
VH: QVQLQQSGSELRSPGSSVKLSCKDFDSEVFPITYMNWVRQKPGHGFEWIGDILPSIGRTMYGEKFEDKATLDADTVSNTAYLELNSLTSEDSAIYYCARSEGYLLAYWGQGTLVTVSA
VL: DIQMTQSLSYLSVSLGGRVTITCKASDHINNWLAWYQQKPGNAPRLLISGATSLETGFPSRFSGSGSGKDYTLSITSLQTEDVATYYCHQYWNTPYTFGGGTRLEIK
notes: as for B2
